From patent US10005838B2, “Milk fat globule epidermal growth factor 8 regulates fatty acid uptake” (REGENTS OF THE UNIVERSITY OF CALIFORNIA, priority 2013, dated 2018)
Entries after “also recorded” stand apart in the source; their conditions may differ.

How the values were obtained:
[1] = test system: FATP1; assay: Plasma membrane FATP1 expression in primary adipocytes; type: cell-based, mouse; details: Mfge8−/− adipocytes
Experimental: (§1) Following tissue preparation and SDS-PAGE, membranes were incubated with a polyclonal antibody against Akt (Cell Signaling Technology), or Rictor (Cell Signaling); Anti-PGC1 alpha antibody (abcam); a monoclonal antibody against Phospho-Akt Ser473 (Cell Signaling), Phospho-Rictor Thr1135 (Cell Signaling), GAPDH (Cell Signaling), or Mfge8 (R&D Systems). For evaluation of total AKT and total Rictor, membranes that been blotted for phospho-AKT and phospho-Rictor were stripped and reprobed. Plasma membrane and post-plasma membrane fractions were isolated as previously described (Nishiumi, S. & Ashida, H., Biosci Biotechnol Biochem 71, 2343-2346 (2007)).

[2] = test system: Rictor at threonine 1135; assay: Western blot, Rictor phosphorylation in 3T3-L1 adipocytes; type: cell-based, mouse
Experimental: as §1

[3] = Blood glucose after IP insulin injection; type: in vivo, mouse; details: mice, rMfge8 co-administered with insulin, antibodies as pretreatment 15 min before insulin
Experimental: Mice were fasted for 4 hours after which they were injected with 1.5 U/kg of insulin IP. Blood was collected from the tail vein immediately before injection and then again after 15, 30, 60, and 90 minutes for evaluation of blood glucose.
In experiments using RGE or Mfge8 construct: mice received 50 μg/kg body weight of recombinant protein. In experiments using function-blocking antibodies: 6-8 week-old mice were fasted for 4 hours and then each mouse received 0.5 μg antibody (integrins αv (clone RMV-7) and β5 (clone ALULA)) per gram body weight in total volume of 200 μl, 15 minutes later each mouse received an insulin injection (1.5 U/kg, intraperitoneal injection (IP)). Blood glucose levels were measured by sampling from the tail vein of mice from 15 minutes after insulin administered.

[4] = test system: CD36; assay: Plasma membrane CD36 expression in primary cells; type: cell-based, mouse; details: primary Mfge8−/− adipocytes, hepatocytes, and enterocytes; to WT levels
Experimental: as §1

[5] = test system: 3T3-L1 adipocytes; assay: Glucose uptake assay (2-NBDG) in 3T3-L1 adipocytes; type: cell-based, mouse
Experimental: Uptake of […] by primary cells and cell lines was assessed using the fluorescent D-glucose analog 2-[N-(7-nitrobenz-2-oxa-1,3-diazol-4-yl)amino]-2-deoxy-D-glucose (2-NBDG) (Invitrogen). 2-NBDG has been successfully used as an alternative to 2-deoxyglucose in the measurement of glucose uptake in multiple cell types. Cells were plated in triplicate in 96-well plates at a concentration of 25,000 cells per well in 100 μl of DMEM/10% FCS. Plates were centrifuged at 1000 rpm for 4 minutes and incubated at 37° C. for 4-5 hours. Cells were then serum deprived for 1 hour before treatment with recombinant proteins for 20 minutes followed by the addition of 2-NBDG (100 μM) for 10 min at 37° C. in a humidified atmosphere of 5% CO2. Reaction was stopped by adding a twofold volume of ice-cold PBS and the wells were washed again with ice-cold PBS three times. The fluorescent signal before (autofluorescence) and after adding 100 μM 2-NBDG was measured using fluorescent plate reader at 37° C. (Molecular Device using the 485 nmex and 520 nmemiss filter set). The net increase in fluorescence was normalized to the lowest signal (0 cells/well). […]

[6] = test system: PTEN; assay: PTEN activity assay (conversion of PIP3 to PIP2) in freshly isolated antrum; type: biochemical, mouse; details: 10 μg/ml
Experimental: In FIG. 14A, the antral rings were treated for 15 min with PI3K inhibitor wortmannin (Wort.100 nm) followed by assessment of contractile force in response to MCh. N=3-4. ***P<0.0001. […] Western blot of antral tissue were treated for 30 minutes with or without rMfge8. […] Western blot of antrum were treated for 30 minutes with wortmannin (100 ng/ml) or Mfge8 and then with MCh for 15 minutes prior to quantifying active RhoA using a GST pull-down. […] PTEN activity assay measured the conversion of PIP3 to PIP2 in freshly isolated antrum with and without the rMfge8 or RGE construct (10 μg/ml) n=3-5. *P<0.05, **P<0.01, ***P<0.001.

[7] = test system: AKT at serine 473; assay: Western blot, AKT phosphorylation in 3T3-L1 cells; type: cell-based, mouse
Experimental: as §1

[8] = test system: antral smooth muscle; assay: Force of antral smooth muscle ring contraction; parameters: species or system mouse; details: addition of rMfge8
[9] = test system: Rictor; assay: Western blot, Rictor phosphorylation in HepG2 cells; type: cell-based, human
Experimental: as §1

[10] = test system: HepG2 cells; assay: Fatty acid uptake in HepG2 cells; type: cell-based; details: HepG2 human hepatocellular carcinoma cell line
[11] = test system: 3T3-L1 adipocytes; assay: Triglyceride content of 3T3-L1 adipocytes; type: cell-based, mouse; details: 3T3-L1 cells; 2, 4, 6, and 8 days after treatment; 10 μg/ml
Experimental: 3T3-L1 (Zen-Bio) fibroblasts were differentiated into adipocytes as described previously (Liao, J. et al., J Lipid Res 46, 597-602 (2005)). Briefly, 3T3-L1 fibroblasts were cultured to confluence on 10 cm tissue culture plates or in 6-well tissue culture dishes in DMEM supplemented with 10% FBS and 25 mM HEPES (normal medium). 2 days after reaching confluence, media was change and 3-isobutyl-1methylxanthine (Calbiochem), dexamethasone (Sigma), and insulin (Sigma) were added to the normal medium at concentrations of 0.5 mM, 1 μM, and 5 μg/mL, respectively, to induce adipocyte differentiation. After 2 days (and every 2 days thereafter), media was replaced with normal medium supplemented with 5 μg/mL insulin. Cells were harvested for use 6-10 days after differentiation. The human hepatocellular carcinoma cell line HepG2 was a generous gift of Dr. Ethan Weiss. Cells were propagated in Eagle's MEM supplemented with 10% fetal bovine serum.

B1: rMfge8: recombinant Milk Fat Globule Epidermal Growth Factor 8, an integrin ligand, expressed in High 5 cells (protein)
chain: ASGDFCDSSLCLNGGTCLTGQDNDIYCLCPEGFTGLVCNETERGPCSPNPCYNDAKCLVTLDTQRGDIFTEYICQCPVGYSGIHCETETNYYNLDGEYMFTTAVPNTAVPTPAPTPDLSNNLASRCSTQLGMEGGAIADSQISASSVYMGFMGLQRWGPELARLYRTGIVNAWTASNYDSKPWIQVNLLRKMRVSGVMTQGASRAGRAEYLKTFKVAYSLDGRKFEFIQDESGGDKEFLGNLDNNSLKVNMFNPTLEAQYIKLYPVSCHRGCTLRFELLGCELHGCSEPLGLKNNTIPDSQMSASSSYKTWNLRAFGWYPHLGRLDNQGKINAWTAQSNSAKEWLQVDLGTQRQVTGIITQGARDFGHIQYVASYKVAHSDDGVQWTVYEEQGSSKVFQGNLDNNSHKKNIFEKPFMARYVRVLPVSWHNRITLRLELLGC
[1]
  membrane expression of FATP1: increased
[2]
  phosphorylation of Rictor at threonine 1135: phosphorylated
[3]
  serum glucose levels after insulin injection as compared with insulin injection alone: significantly higher
[4]
  membrane expression of CD36: increased
[5]; insulin 1 μM
  effect of insulin on glucose uptake: significantly inhibited
[5]; without insulin
  baseline glucose uptake: no difference; also recorded: no effect
[6]
  PTEN activity: modulates
[7]
  phosphorylation of AKT at serine 473: induced
[8]
  smooth muscle contraction of stomach strips from Mfge8 KO mice: rescued
[9]
  phosphorylation of Rictor: induced
[10]
  fatty acid uptake in HepG2 cells: increased
[11]
  triglyceride content: significantly greater
